Assay results: patent publication US20210139581A1 (Alector, published 2021)
Read-outs that look alike come from different tables or passages of the source.

How the values were obtained:
[1] = target: T1, human CD33 on primary human monocyte-derived dendritic cells (human, UniProt P20138 18-364); experiment: cell-based or functional assay
[2] = target: T2, human CD33 (human, UniProt P20138 18-259, limits assumed); experiment: BLI (ForteBio), Fab 100 nM on immobilized CD33
T2 construct: Human CD33 immobilized on the BLI sensor tip or the BIAcore C1 chip; also called Siglec-3
Description: The affinities (KD) of the humanized antibodies for human CD33 were measured for each antibody by BioLayer Interferometry in a ForteBio assay according to standard techniques (Estep et al. (2013) MAbs 5(2): 270-8). […] The assay was carried out at room temperature.
The affinities of AB-H14 and its affinity-matured variants (Table 15) and AB-H63 and its affinity-matured variants (Table 16), for human CD33 were measured by Fortebio assay according to the method described in Example 1 above.

[3] = target: T1, human CD33 on primary human …; experiment: cell-based or functional assay; remark: listed apart in the source
[4] = target: T2, human CD33; experiment: SPR (BIAcore), Fab over CD33 on C1 chip
Description: The affinity parameters for 10 of the 88 humanized antibodies (AB-H1, AB-H3, AB-H6, AB-H11, AB-H22, AB-H24, AB-H26, AB-H63, AB-H64, and AB-H71) were measured in a separate experiment by a more sensitive technique, surface plasmon resonance (BIAcore), and compared to Chimeric Ab and Chimeric Ab #2. BIAcore measurements were performed as follows: human CD33 was immobilized on the surface of a C1 chip, and Fabs were injected for 300 s to monitor association, followed by a 900 s flow in running buffer to monitor dissociation. The Fabs were measured at 5 concentrations: a high concentration of 27 nM and 3-fold serial dilutions.

[5] = target: T1, human CD33 on primary human …; experiment: cell-based or functional assay; remark: listed apart in the source

T1 sequence (P20138 18-364): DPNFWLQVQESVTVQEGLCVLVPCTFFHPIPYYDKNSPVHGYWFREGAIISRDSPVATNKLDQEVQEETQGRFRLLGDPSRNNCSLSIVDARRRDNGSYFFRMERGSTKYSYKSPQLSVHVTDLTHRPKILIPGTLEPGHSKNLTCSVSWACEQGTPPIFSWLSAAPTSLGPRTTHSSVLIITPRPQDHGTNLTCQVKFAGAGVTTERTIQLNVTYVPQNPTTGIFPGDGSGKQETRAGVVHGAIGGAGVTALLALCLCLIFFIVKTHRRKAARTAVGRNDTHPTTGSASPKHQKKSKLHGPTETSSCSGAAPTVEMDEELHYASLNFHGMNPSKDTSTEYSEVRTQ
T2 sequence (P20138 18-259 limits assumed): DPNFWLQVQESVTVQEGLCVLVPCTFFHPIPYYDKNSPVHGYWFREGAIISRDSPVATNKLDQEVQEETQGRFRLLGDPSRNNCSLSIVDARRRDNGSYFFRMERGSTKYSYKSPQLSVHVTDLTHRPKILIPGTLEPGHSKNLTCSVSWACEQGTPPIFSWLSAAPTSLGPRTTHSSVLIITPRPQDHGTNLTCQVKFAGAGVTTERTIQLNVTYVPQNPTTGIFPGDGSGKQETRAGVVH

Binder	Fold Change to Chimeric Ab [4] [fold]	Kd [4] [pM]	koff [4] [s⁻¹]	kon [4] [M⁻¹ s⁻¹]	Maximal Downregulation (% CD33 remaining) [5] [%]	Receptor downregulation (EC50) [5] [pM]	also measured
AB-14.1 (antibody, V domains shown) VH: QVQLVQSGAEVKKPGASVKVSCKASGATFTDYNFHWVRQAPGQGLEWIGFIYPSNGITGYAQDFQGRVTMTVDTSTSTVYMELSSLRSEDTAVYYCARSDVDYFDYWGQGTLVTVSS VL: DIQMTQSPSSLSASVGDRVTITCRASQSVSTSTYSYMHWYQQKPGKAPKLLIKYASNLESGVPSRFSGSGSGTDFTLTISSLQPEDFATYYCQHSWEIPLTFGQGTKLEIK							Maximal Downregulation (% CD33 remaining) [1]: 18.6%; Receptor downregulation (EC50) [1]: 92.7 pM; Fold affinity improvement over parental Ab (AB-H14) [2]: 9.73 fold; Kd [2]: ≤ 299 pM; koff [2]: ≤ 0.0002 s⁻¹; kon [2]: 670000 M⁻¹ s⁻¹
AB-14.2 (antibody, V domains shown) VH: QVQLVQSGAEVKKPGASVKVSCKASGATFTDYNYHWVRQAPGQGLEWIGFIYPSNGITGYAQKFQDRVTMTVDTSTSTVYMELSSLRSEDTAVYYCARSFVDYFDYWGQGTLVTVSS VL: DIQMTQSPSSLSASVGDRVTITCRASQDVSTSTYSYMHWYQQKPGKAPKLLIKYASNLESGVPSRFSGSGSGTDFTLTISSLQPEDFATYYCQHSWEIPLTFGQGTKLEIK							Maximal Downregulation (% CD33 remaining) [1]: 23.8%; Receptor downregulation (EC50) [1]: 55 pM; Fold affinity improvement over parental Ab (AB-H14) [2]: 14.4 fold; Kd [2]: 202 pM; koff [2]: 0.0002 s⁻¹; kon [2]: 991000 M⁻¹ s⁻¹
AB-63.17 (antibody, V domains shown) VH: QVQLVQSGAEVKKPGASVKVSCKASGYTFTDYNYHWVRQAPGQGLEWIGFIYPSNGITGYAQKFQGRVTMTVDTSTSTVYMELSSLRSEDTAVYYCARSDVDYFDYWGQGTLVTVSS VL: DIVLTQSPDSLAVSLGERATINCRGSQSVSTSTYSYMHWYQQKPGQPPKLLIKYESNLESGVPDRFSGSGSGTDFTLTISSLQAEDVAVYYCQHSWEIPLTFGQGTKLEIK							Maximal Downregulation (% CD33 remaining) [3]: 27.2%; Receptor downregulation (EC50) [3]: 52.2 pM
AB-H11 (antibody, V domains shown, Humanized variant of murine 2F5.1) VH: QVQLVQSGAEVKKPGASVKVSCKASGYTFTDYNLHWVRQAPGQSLEWIGFIYPSNGITGYSQKFQGKATLTVDTSASTAYMELSSLRSEDTAVYYCARSTVDYFDYWGQGTTVTVSS VL: DIQMTQSPSSLSASVGDRVTITCRASQSVSTSTYSYMHWYQQKPGKAPKLLIYYASNLESGVPSRFSGSGSGTDFTLTISSLQPEDFATYYCQHSWEIPLTFGQGTKLEIK	1.22	1330	0.00162	1.22e+06	23.3	77.2	
AB-63.18 (antibody, V domains shown) VH: QVQLVQSGAEVKKPGSSVKVSCKASGYTHTDYNLHWVRQAPGQGLEWIGFIYPSNGITGYAQKFQGRVTMTVDTSTSTVYMELSSLRSEDTAVYYCARSDVDYFDYWGQGTLVTVSS VL: DIVLTQSPDSLAVSLGERATINCRASQSVSTSTYSYMHWYQQKPGQPPKLLIKYESNLESGVPDRFSGSGSGTDFTLTISSLQAEDVAVYYCQHSWEIPLTFGQGTKLEIK							Maximal Downregulation (% CD33 remaining) [3]: 26.8%; Receptor downregulation (EC50) [3]: 62.9 pM; Fold affinity improvement over parental Ab (AB-H63) [2]: 4.44 fold; Kd [2]: 613 pM
AB-H6 (antibody, V domains shown, Humanized variant of murine 2F5.1) VH: QVQLVQSGAEVKKPGASVKVSCKASGYTFTDYNLHWVRQAPGQGLEWMGFIYPSNGITGYAQKFQGRVTMTVDTSTSTAYMELSSLRSEDTAVYYCARSTVDYFDYWGQGTTVTVSS VL: DIQMTQSPSSLSASVGDRVTITCRASQSVSTSTYSYMHWYQQKPGKAPKLLIYYASNLESGVPSRFSGSGSGTDFTLTISSLQPEDFATYYCQHSWEIPLTFGQGTKLEIK	1.18	1370	0.00151	1.1e+06	20.6	169	
AB-H22 (antibody, V domains shown, Humanized variant of murine 2F5.1; also called AB-22) VH: QVQLVQSGAEVKKPGASVKISCKASGYTFTDYNLHWVRQAPGQRLEWIGFIYPSNGITGYNQKFKNKATLTVDTSASTAYMELSSLRSEDTAVYYCARSTVDYFDYWGQGTTVTVSS VL: DIQMTQSPSSLSASVGDRVTITCRASQSVSTSTYSYMHWYQQKPGKAPKLLIKYASNLESGVPSRFSGSGSGTDFTLTISSLQPEDFATYYCQHSWEIPLTFGQGTKLEIK	0.62	2630	0.00182	690000	22.6	90.1	
AB-H3 (antibody, V domains shown, Humanized variant of murine 2F5.1) VH: QVQLVQSGAEVKKPGASVKISCKASGYTFTDYNLHWVRQAPGQGLEWIGFIYPSNGITGYAQKFQGRATLTVDTSTSTAYMELSSLRSEDTAVYYCARSTVDYFDYWGQGTLLTVSS VL: DIQMTQSPSSLSASVGDRVTITCRASQSVSTSTYSYMHWYQQKPGKAPKLLIYYASNLESGVPSRFSGSGSGTDFTLTISSLQPEDFATYYCQHSWEIPLTFGQGTKLEIK	1.43	1130	0.0014	1.23e+06	21.2	93.3	
AB-H71 (antibody, V domains shown, Humanized variant of murine 2F5.1; also called AB-71) VH: QVQLVQSGAELKKPGASVKVSCKASGYTFTDYNLHWVRQAPGQRLEWIGFIYPSNGITGYSQKFQGKATLTVDTSASTAYMELSSLRSEDTAVYYCARSTVDYFDYWGQGTTVTVSS VL: DIVLTQSPDSLAVSLGERATINCRASQSVSTSTYSYMHWYQQKPGQPPKLLIKYASNLESGVPDRFSGSGSGTDFTLTISSLQAEDVAVYYCQHSWEIPLTFGQGTKLEIK	0.87	1880	0.00351	1.87e+06	25.8	41.2	
AB-H1 (antibody, V domains shown, Humanized variant of murine 2F5.1) VH: QVQLVQSGAEVKKPGASVKVSCKASGYTFTDYNLHWVRQAPGQGLEWMGFIYPSNGITGYAQKFQGRVTMTRDTSTSTVYMELSSLRSEDTAVYYCARSTVDYFDYWGQGTLVTVSS VL: DIQMTQSPSSLSASVGDRVTITCRASQSVSTSTYSYMHWYQQKPGKAPKLLIYYASNLESGVPSRFSGSGSGTDFTLTISSLQPEDFATYYCQHSWEIPLTFGQGTKLEIK	1.03	1580	0.00186	1.18e+06	25	127	
AB-63.16 (antibody, V domains shown) VH: QVQLVQSGAEVKKPGASVKVSCKASGYTFTDYNYHWVRQAPGQGLEWIGFIYPSNGITGYAQKFQGRVTMTVDTSTSTVYMELSSLRSEDTAVYYCARSDVDYFDYWGQGTLVTVSS VL: DIVLTQSPDSLAVSLGERATINCRASQSVHTSTYSYMHWYQQKPGQPPKLLIKYASNLESGVPDRFSGSGSGTDFTLTISSLQAEDVAVYYCQHSWEIPLTFGQGTKLEIK							Maximal Downregulation (% CD33 remaining) [3]: 23.4%; Receptor downregulation (EC50) [3]: 29.3 pM
AB-H26 (antibody, V domains shown, Humanized variant of murine 2F5.1; also called AB-26) VH: QVQLVQSGAEVKKPGASVKVSCKASGYTFTDYNLHWVRQAPGQRLEWIGFIYPSNGITGYSQKFQGRATLTVDTSASTAYMELSSLRSEDTAVYYCARSTVDYFDYWGQGTTVTVSS VL: DIQMTQSPSSLSASVGDRVTITCRASQSVSTSTYSYMHWYQQKPGKAPKLLIKYASNLESGVPSRFSGSGSGTDFTLTISSLQPEDFATYYCQHSWEIPLTFGQGTKLEIK	0.28	5860	0.00234	400000	21.9	51.9	
AB-H24 (antibody, V domains shown, Humanized variant of murine 2F5.1; also called AB-24) VH: QVQLVQSGAEVKKPGASVKISCKASGYTFTDYNLHWVRQAPGQRLEWIGFIYPSNGITGYSQKFQGKATLTVDTSASTAYMELSSLRSEDTAVYYCARSTVDYFDYWGQGTTVTVSS VL: DIQMTQSPSSLSASVGDRVTITCRASQSVSTSTYSYMHWYQQKPGKAPKLLIKYASNLESGVPSRFSGSGSGTDFTLTISSLQPEDFATYYCQHSWEIPLTFGQGTKLEIK	0.27	6020	0.00228	379000	22.2	72.5	
